Laboratory results reported in patent US20090010874A1 (published 2009).
Substitutions are numbered along the chain they refer to. In names and notes the source's numbering stands.

B1: IL-4RA (IL-4 double mutein R121D/Y124D, unPEGylated) (ligand)
chain: MHKCDITLQEIIKTLNSLTEQKTLCTELTVTDIFAASKNTTEKETFCRAATVLRQFYSHHEKDTRCLGATAQQFHRHKQLIRFLKRLDRNLWGLAGLNSCPVKEANQSTLENFLERLKTIMDEKDSKCSS
notes: also called BAY 16-9996; IL-4DM
B2: IL4-RE-A104C, PEGylated with linear 22 kD mPEG-maleimide (ligand)
chain: B1 chain with A105C
modifications: linear 22 kD methoxy-polyethylene glycol-maleimide on Cys 104 (numbered according to wild type IL-4)
notes: also called PEG-IL4RE
B3: IL4-RE-N38C, PEGylated with linear 22 kD mPEG-maleimide (ligand)
chain: B1 chain with N39C
modifications: linear 22 kD methoxy-polyethylene glycol-maleimide on Cys 38 (numbered according to wild type IL-4)
notes: also called PEG-IL4RE
B4: IL4-RE-K37C, PEGylated with linear 22 kD mPEG-maleimide (ligand)
chain: B1 chain with K38C
modifications: linear 22 kD methoxy-polyethylene glycol-maleimide on Cys 37 (numbered according to wild type IL-4)
notes: also called PEG-IL4RE
B5: IL4-RE-N105C, PEGylated with linear 22 kD mPEG-maleimide (ligand)
chain: B1 chain with N106C
modifications: linear 22 kD methoxy-polyethylene glycol-maleimide on Cys 105 (numbered according to wild type IL-4)
notes: also called PEG-IL4RE
B6: IL4-RE-T28C, PEGylated with linear 22 kD mPEG-maleimide (ligand)
chain: B1 chain with T29C
modifications: linear 22 kD methoxy-polyethylene glycol-maleimide on Cys 28 (numbered according to wild type IL-4)
notes: also called PEG-IL4RE
B7: IL4-RE-Q106C, PEGylated with linear 22 kD mPEG-maleimide (ligand)
chain: B1 chain with Q107C
modifications: linear 22 kD methoxy-polyethylene glycol-maleimide on Cys 106 (numbered according to wild type IL-4)
notes: also called PEG-IL4RE
B8: IL4-RE-S36C, PEGylated with linear 22 kD mPEG-maleimide (ligand)
chain: B1 chain with S37C
modifications: linear 22 kD methoxy-polyethylene glycol-maleimide on Cys 36 (numbered according to wild type IL-4)
notes: also called PEG-IL4RE
B9: IL4-RE-T13D (T13D/R121D/Y124D), unPEGylated (ligand)
chain: B1 chain with T14D
B10: IL-4TM-N38C (R121D/Y124D/N38C) PEGylated with 40 kDa branched maleimide-PEG (ligand)
chain: B1 chain with N39C
modifications: 40 kDa branched maleimide-PEG on Cys 38 (numbered according to wild type IL-4)
B11: IL-4TM-A104C (R121D/Y124D/A104C) PEGylated with 40 kDa branched maleimide-PEG (ligand)
chain: B1 chain with A105C
modifications: 40 kDa branched maleimide-PEG on Cys 104 (numbered according to wild type IL-4)
B12: IL-4TM-A104C (R121D/Y124D/A104C) PEGylated with 30 kDa linear maleimide-PEG (ligand)
chain: B1 chain with A105C
modifications: 30 kDa linear maleimide-PEG on Cys 104 (numbered according to wild type IL-4)
B13: PEGylated T13D-N38C with 40 kDa branched PEG (IL4-RE-T13D-N38C) (ligand)
chain: B1 chain with T14D, N39C
modifications: 40 kDa branched maleimide-PEG on Cys 38 (numbered according to wild type IL-4)

These binders were tested against T1, human IL-4 receptor alpha chain on cells (TF-1 cells, primary human T-cell blasts and B cells) (human, UniProt P24394 26-825) (assay: cell-based or functional assay).
T1 sequence (looked up): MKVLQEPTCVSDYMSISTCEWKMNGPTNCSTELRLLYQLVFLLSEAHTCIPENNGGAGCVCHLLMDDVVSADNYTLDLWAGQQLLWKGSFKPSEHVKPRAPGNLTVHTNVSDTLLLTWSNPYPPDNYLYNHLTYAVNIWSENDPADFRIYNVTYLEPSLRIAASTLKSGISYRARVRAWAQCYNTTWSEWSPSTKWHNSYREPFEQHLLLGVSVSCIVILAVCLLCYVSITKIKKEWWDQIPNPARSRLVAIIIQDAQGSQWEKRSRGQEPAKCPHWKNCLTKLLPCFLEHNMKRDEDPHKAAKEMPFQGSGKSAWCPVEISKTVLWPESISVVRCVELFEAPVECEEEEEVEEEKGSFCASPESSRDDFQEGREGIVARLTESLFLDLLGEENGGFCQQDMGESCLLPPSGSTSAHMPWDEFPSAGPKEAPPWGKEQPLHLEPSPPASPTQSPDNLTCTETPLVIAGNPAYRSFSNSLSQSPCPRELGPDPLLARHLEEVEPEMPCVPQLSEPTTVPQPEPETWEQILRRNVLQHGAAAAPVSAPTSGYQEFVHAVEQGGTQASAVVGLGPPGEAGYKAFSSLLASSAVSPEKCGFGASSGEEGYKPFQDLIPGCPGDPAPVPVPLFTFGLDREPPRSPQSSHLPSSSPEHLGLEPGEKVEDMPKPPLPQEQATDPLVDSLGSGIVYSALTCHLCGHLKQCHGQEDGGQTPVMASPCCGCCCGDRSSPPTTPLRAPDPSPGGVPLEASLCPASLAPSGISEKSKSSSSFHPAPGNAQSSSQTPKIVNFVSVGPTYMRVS

B1 and B2 are within 1.5-fold of each other in “TF-1/IL-4 IC50” value: 0.56 nM for the first, 0.55 nM for the second.

B3 and B4 are within 1.5-fold of each other in “TF-1/IL-4 IC50” value: 0.7 nM for the first, 0.82 nM for the second.

B5 and B6 are within 1.5-fold of each other in “TF-1/IL-4 IC50” value: 2.26 nM for the first, 2.35 nM for the second.

Compared with B7, B8 is 2-fold lower in “TF-1/IL-4 IC50” value: 2.44 nM for the first, 1.2 nM for the second.

B1 and B2 are within 1.5-fold of each other in “TF-1/IL-13 IC50” value: 1.17 nM for the first, 1.34 nM for the second.

B3 and B4 are within 1.5-fold of each other in “TF-1/IL-13 IC50” value: 1.24 nM for the first, 1.22 nM for the second.

B5 and B6 are within 1.5-fold of each other in “TF-1/IL-13 IC50” value: 2.11 nM for the first, 2.87 nM for the second.

First: B7
Second: B8
The “TF-1/IL-13 IC50” value of the first is 1.6-fold higher: 1.95 nM for the first, 1.21 nM for the second.

Molecular target: T1, human IL-4 receptor alpha chain on …
Assay: cell-based or functional assay
Remark: another data set of the same source

Compared with B1, B9 is lower in “Fold increase in IC50 (relative to IL-4DM), primary B cells” value: 1 fold for the first, 0.3 fold for the second.

Compared with B10, B11 is higher in “Fold increase in IC50 (relative to IL-4DM), primary B cells” value: 4 fold for the first, 11.3 fold for the second.

First: B12
Second: B13
The “Fold increase in IC50 (relative to IL-4DM), primary B cells” value of the first is higher: 7.6 fold for the first, 1.4 fold for the second.

Going from B1 to B9, the “IC50 (nM), primary B cell proliferation to anti-CD40 and IL-4” value (shortened to “IC50 (nM), primary B cell proliferation”) falls from 1.71 nM to 0.5 nM (3.4-fold).

First: B10
Second: B11
The “IC50 (nM), primary B cell proliferation” value of the first is 2.8-fold lower: 6.85 nM for the first, 19.4 nM for the second.

Going from B12 to B13, the “IC50 (nM), primary B cell proliferation” value falls from 13 nM to 2.43 nM (5.3-fold).

Molecular target: T1, human IL-4 receptor alpha chain on …
Assay: cell-based or functional assay
Remark: another data set of the same source

First: B1
Second: B2
The “B-cell IC50, nM (proliferation to IL-4)” value of the first is 3.8-fold lower: 0.86 nM for the first, 3.29 nM for the second.

B3 and B4 are within 1.5-fold of each other in “B-cell IC50, nM (proliferation to IL-4)” value: 3.33 nM for the first, 3.73 nM for the second.

B1 and B2 are within 1.5-fold of each other in “T-cell blast IC50, nM (proliferation to IL-4)” value: 3.22 nM for the first, 4.67 nM for the second.

B3 and B4 are within 1.5-fold of each other in “T-cell blast IC50, nM (proliferation to IL-4)” value: 9.94 nM for the first, 13.9 nM for the second.

Molecular target: T1, human IL-4 receptor alpha chain on …
Assay: cell-based or functional assay
Remark: another data set of the same source

For B11, the “loss of activity in the TF-1 activity assay against PEGylated 38C” value was about 2 fold.

What follows are binders tested against T2, IL-4 receptor (immobilized on BIAcore CM5 chip) (human, UniProt P24394 26-232, limits assumed) (assay: BIAcore SPR, IL-4 receptor amine-coupled to CM5 chip, mutein injected, direct binding kinetics).
T2 construct: also called IL-4Rα; IL-4 receptor alpha chain
T2 sequence (looked up): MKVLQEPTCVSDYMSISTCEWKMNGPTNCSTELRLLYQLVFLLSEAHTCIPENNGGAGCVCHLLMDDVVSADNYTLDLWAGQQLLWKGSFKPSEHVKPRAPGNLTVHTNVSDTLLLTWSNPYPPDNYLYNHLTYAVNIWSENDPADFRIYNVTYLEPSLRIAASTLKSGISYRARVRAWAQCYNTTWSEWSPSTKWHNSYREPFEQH
Description: IL-4 receptor was immobilized on a BIAcore CM5 research grade sensor chip through amine coupling. The sensor surface was activated with an EDC/NHS pulse. IL-4 receptor was dissolved in 10 mM acetate buffer (pH 5.0) and injected into flowcell 2 followed by a pulse of 1.0M ethanolamine-HCL to deactivate the surface. The immobilization level for the receptor was ˜300 RU. Flowcell 1 was also activated without a ligand to function as a blank. The Biacore Wizard was used to perform kinetics analysis. Candidate IL4RE antagonists were diluted in HBS-EP (running buffer) and injected at 30 ul/minute flow rate for 3 minutes and a dissociation time of 15 minutes. Regeneration of the chip was performed by two 30 second injections of 10 mM Glycine pH2.5 (flow 100 ul/min) to baseline prior to next injection in the concentration series. Dissociation constant (KD) values were calculated for each candidate based on direct binding kinetics (Table 5).

Going from B1 to B2, the Kd rises from 0.11 nM to 0.56 nM (5.1-fold).

B3 and B4 are within 1.5-fold of each other in Kd: 0.77 nM for the first, 0.74 nM for the second.

Compared with B5, B6 is 1.5-fold higher in Kd: 0.59 nM for the first, 0.89 nM for the second.

Compared with B7, B8 is 2.2-fold higher in Kd: 0.52 nM for the first, 1.15 nM for the second. The first binds more tightly here.

Molecular target: T1, human IL-4 receptor alpha chain on …
Assay: cell-based or functional assay
Remark: another data set of the same source

First: B1
Second: B9
The “Fold increase in IC50 (relative to IL-4DM), primary T cell blasts” value of the first is higher: 1 fold for the first, 0.67 fold for the second.

First: B10
Second: B11
The “Fold increase in IC50 (relative to IL-4DM), primary T cell blasts” value of the first is lower: 2.3 fold for the first, 7.4 fold for the second.

Compared with B12, B13 is lower in “Fold increase in IC50 (relative to IL-4DM), primary T cell blasts” value: 4.6 fold for the first, 3.1 fold for the second.

B1 and B9 are within 1.5-fold of each other in “IC50 (nM), primary T cell blast proliferation to IL-4” value (“IC50 (nM) … to IL-4” for short): 1.07 nM for the first, 0.714 nM for the second.

Compared with B10, B11 is 3.3-fold higher in “IC50 (nM) … to IL-4” value: 2.43 nM for the first, 8 nM for the second.

Compared with B12, B13 is 1.5-fold lower in “IC50 (nM) … to IL-4” value: 4.93 nM for the first, 3.28 nM for the second.
